Target: T1, POPDC1-Myc (Popeye domain-containing protein 1, Myc-tagged) (mouse, UniProt Q9ES83 1-358)
T1 construct: POPDC1 (Bves), mouse; construct described in Froese et al 2012 and Schindler et al 2016b; Mouse is stated for the BiFC constructs, which were made from the previously described tagged constructs; also called Myc-tagged POPDC1; BVES; source: HEK293 or COS-7, transfected, in cells or in lysate
T1 sequence (looked up): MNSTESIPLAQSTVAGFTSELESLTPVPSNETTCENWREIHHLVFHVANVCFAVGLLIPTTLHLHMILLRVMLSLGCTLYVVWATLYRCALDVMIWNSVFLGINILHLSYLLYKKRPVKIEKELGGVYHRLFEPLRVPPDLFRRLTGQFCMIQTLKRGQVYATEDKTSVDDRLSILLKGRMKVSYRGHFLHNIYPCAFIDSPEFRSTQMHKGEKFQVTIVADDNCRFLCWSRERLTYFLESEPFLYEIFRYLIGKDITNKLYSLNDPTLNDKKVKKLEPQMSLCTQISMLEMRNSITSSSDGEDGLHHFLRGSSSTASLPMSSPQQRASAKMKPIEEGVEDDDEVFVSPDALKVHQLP
Experiment: co-IP; IP-AC assay: HEK293 lysates expressing AC1 or AC8 with or without Myc-tagged POPDC1, immunoprecipitation with anti-MYC, AC activity stimulated with 100 μM calcium and 300 nM calmodulin
Details: partners not purified

B1: nontagged AC1 (adenylyl cyclase 1) (enzyme)
chain: not shown
notes: adenylyl cyclase 1 (AC1), Ca2+/calmodulin-stimulated; the plasmid is not described; source: HEK293, transfected, in lysate
- fold Ca2+/calmodulin-stimulated AC activity in the POPDC1 immunoprecipitate over IgG controls: 1.59 ± 0.05 fold
